# Assay: yeast display, Sf9 membrane polyspecificity reagent, FACS + sequencing; frameworks hold sequencing errors
# Outline: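 A synthetic nanobody library was expressed on Saccharomyces cerevisiae BJ5465 by galactose induction for 36–48 hours. The library was stained for 1 hour at 4 °C with 10% biotinylated, detergent-solubilized Sf9 membrane reagent and enriched with streptavidin microbeads before FACS. Low and high (top ~1%) gates were set on anti-HA fluorescence for expression and streptavidin fluorescence for reagent binding, and each polyreactivity label reflects the gate of origin.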
row,Sequence,polyreactivity (PSR sort gate)
1,QVQLVESGGGLVQAGGSLRLSCAASGSILRSYAMGWYRQAPWKERELVAVINGSGGRTYYADSVKGRFTISRDIAKNTVYLQMNSLKPEDTAVYYCNADPGGRYPRRGYAHEGDYWGQGTQVTVSS,low polyreactivity
2,QVQLVESGGGLVQAGGSLRLSCAASGSILRVNAMGWYRQAPGKEREVVAAISSGGITNYADSVKGALHNFTRQCEEYRLFTDEQPETGTYRGQFCARTYRNPASAGSLVVRYPYDYWGQGTQVTVTS,low polyreactivity
3,QVQLVESGGGLVQAGGSLRLSCAASGSILRYYAMGWYRQAPGKERELVADISTSGGSTYYADSVKGRFTISRDNAKNTFDLQMISLKPEDTAVYYCASAYYRYLIYIGKFDYWGQGTQVTVSS,high polyreactivity
4,QVQLVESGGGLVQAGGSLRLSCAASGSILSGYAMGWYRQAPGTERELVAAINDGGGTNYADSVKGRFTISRDNAKNTVYLQMKSLKPEDTAVYYCAAEQSVSFLVFTGVKFDYWGQGTQVTVSS,low polyreactivity
5,QVQLVESGGGLVQAGGSLRLSCAASGSILSLNGMGWYRQAPGKERELVAVIRSGGSTYYADSVKGRFTISRDNAKNTVYLQMNSLKPEDTAVYYCNAQDYLTTVPDPEYDYWGQGTQVTVSS,low polyreactivity
6,QVQLVESGGGLVQAGGSLRLSCAASGSILSRYAMGWYRQAPGKERELVATITRRGGSTFYADSVKGRFTISRDNAKNTVYLQMNSLKPEDTAVYYCAVGRLFWGQGTQVTVSS,low polyreactivity
7,QVQLVESGGGLVQAGGSLRLSCAASGSILSTYSMGCYRQAPGKERELVASISSNAGSTYYADSVKGRFTISRDNAKNTVYLQMNSLKPEDTAVYYCNKVYGGGTYDYWGQGTQVTVSS,low polyreactivity
8,QVQLVESGGGLVQAGGSLRLSCAASGSILTINAMGWYRQAPGKERELVARITISSGSTYYADSVKGRFTISRDNAKNTVYLQMNSLKPEDTAVYYCATDGRSNYYWGDYWGQGTQVTVSS,low polyreactivity
9,QVQLVESGGGLVQAGGSLRLSCAASGSILTRNAMGWYRQAPGKERELVAAISGGGGRTYYADSVKGRFTISRDNAKNTVYLQMNSLKPEDTAVYYCAADDGYSSNEYDYWGQGTQVTVSS,low polyreactivity
10,QVQLVESGGGLVQAGGSLRLSCAASGSILTRNAMGWYRQAPGKERELVAAISYSGVRTYYADSVKGRFTISRDNAKNTVYLQMNSLKPEDTAVYYCNAVISSRYDYWGQGTQVTVSS,high polyreactivity
11,QVQLVESGGGLVQAGGSLRLSCAASGSILTVYAMGWYRQAPGKERELVARIRSGDRTYYADSVKGRFTISRDNAKNTVYLQMNSLKPEDTAVYYCAAGSQRRYYHTNWDSFNYWGQGSQVTVSS,low polyreactivity
12,QVQLVESGGGLVQAGGSLRLSCAASGSILVANGMGWYRKAPGKERELVAGITTRGGNTYYADSVKGRFTISRDNAKNTVYLQMNSLKPEDTAVYYCATDLIGVWYWYEYWGQGTQVTVSS,low polyreactivity
13,QVQLVESGGGLVQAGGSLRLSCAASGSILVGNPMGWYRQAPGTERELVAAISKSGSSTHYADSVKGRFTISRDNAKNTFYLQMNSLKPEDTAVYYCNAVGRVYRAKYDYWGQGTQVTVSS,high polyreactivity
14,QVQLVESGGGLVQAGGSLRLSCAASGSILVNMGWSRQAPAKERELVAAIRYGGGRTYYADSVKGRFTISRDNAKNTVYLQMNSLKPEDTEVYYCAKKYIWVWAPAKQYGFDSWGQGTQVTVSS,low polyreactivity
15,QVQLVESGGGLVQAGGSLRLSCAASGSILVPNAMGWYRQAPRKERELVAGISANGGSTYYADSVKGRFTISRDNAKNTVYFQMNSLKPEDTAVYDCNARLYWDWYGDDYWGQGTQVTVSS,low polyreactivity
16,QVQLVESGGGLVQAGGSLRLSCAASGSILVPYTMGWYRQAPGKERELVASISYSGGTTYYADSVKGRFTISRDNAKNTVYLQMNSLKPEDTAVYYCAADWDESYSYRRYRHYNYWGQGTQVTVSS,low polyreactivity
17,QVQLVESGGGLVQAGGSLRLSCAASGSILWENAMGWYRQAPGKERELVATISVSGGGTYYADSVKGRFTISRDNAKNTVYLQMNSLKPEDTAVYYCNARYGNESQGWEDYWGQGTQVTVSS,low polyreactivity
18,QVQLVESGGGLVQAGGSLRLSCAASGSILWHYAMGWYRQAPGKERELVAAISGSGRTNYADSVKGRFTISRDNAKNTVYLQMNSLKPEDTAVYYCARVHGTSESKYYYWGQGTQVTVSL,low polyreactivity
19,QVQLVESGGGLVQAGGSLRLSCAASGSILWLYVMGWYRQAPGKERELVATITSSGGSTYYADSVKGRFTISRDNAKNSVYLQMNSLKPEDTAVYYCAADYSRDEYDYWGQGTQVTVSS,low polyreactivity
20,QVQLVESGGGLVQAGGSLRLSCAASGSILWSYAMGWYRQAPGKERELVAAIRSGGSTYYADSVKGRFTISRDNAKNTVYLQMNSLKPEDTAVYYCNATYAPLFEYDYWGQGTQVTVSS,low polyreactivity
21,QVQLVESGGGLVQAGGSLRLSCAASGSILYPYAMGWYRQAPGKERELVAAISSDGSTYYADSVKGRFTISRDNAKNTVYLQMNSLKPEDTAVYYCNADIGPRYDYWGQGTQVTVSS,high polyreactivity
22,QVQLVESGGGLVQAGGSLRLSCAASGSILYTYAMGWYRQAPGKERELVAAISRGGGSTYYADSVKGRFTISRDNAKNTVYLQMNSLKPEDTAVYYCAARKLTRGTGRDDEYWGQGTQVTVSS,high polyreactivity

row,Sequence,polyreactivity (PSR sort gate)
1,QVQLVESGGGLVQAGGSLRLSCAASGSILYVYAMGWYRQAPGKERELVAAISFSGGSTYYADSVKGRFTISRDNAKNTVYLQMNSLKPEDTAVYYCAADVSYDIYVEYDYWGQGTQVTVSS,low polyreactivity
2,QVQLVESGGGLVQAGGSLRLSCAASGSILYWYAMGWYRQAPGKERELVAGIDWSGGSTYYADSVKGRFTISRDNAKNTVYLQMNSLKPEDTAVYYCNAVQNRGRGSHRGESTYYYWGQGTQVTVSS,low polyreactivity
3,QVQLVESGGGLVQAGGSLRLSCAASGSILYYNAMGWYRQAPGKEREFVAAISDSGSSTYYADSVKGRFTITRDNAKNTVYLQMNSLKPEDTAVYYCNTEIYVDIISDYGYWGQGTQVTVSS,low polyreactivity
4,QVQLVESGGGLVQAGGSLRLSCAASGSILYYYAMGWYRQAPGKERELVAAISSGGSTYYADSVKGRFTISRDNAKNTVYLQMNSLKPEDTAVYYCAARRDNPWAKAPRYKMYYWGQGTQVTVSS,high polyreactivity
5,QVQLVESGGGLVQAGGSLRLSCAASGSIMSYYAMGWYRQAPGQVREFVAAISSGGGTYYADSVKGRFTISRDNAKNTVYLQMNSLNAEDTAVFYCNADHASSIQFEYWGQGTQVTVSS,low polyreactivity
6,QVQLVESGGGLVQAGGSLRLSCAASGSIQTLYAMGWYRQAPGKERELVAAITSGDRTNYADSVKGRFTISRDNAKNTVYLQMNSLKPEDTAVYYCATKRWWGRYDYWGQGTQVTVSS,high polyreactivity
7,QVQLVESGGGLVQAGGSLRLSCAASGSIRRYAMGWYRQAPGKERELVAAISGSGVSTYYADSVKGRFTISRDNAKNTVYLQMNSLKPEDTAVYYCAAAAIYFRYDYWGQGTQVTVSS,high polyreactivity
8,QVQLVESGGGLVQAGGSLRLSCAASGSISAAYAMGWYRQAPGKERELVADISSSGVSTYYADSVKGRFTISRDNAKNTVYLQMNSLKQEDTAVYYCAKNRVAGYRKYDYWGQGTQVTVSS,low polyreactivity
9,QVQLVESGGGLVQAGGSLRLSCAASGSISAQNAMGRYRQAPGKERELVATINSGGRTNYADSVKGRFTISRDNAKNTVYLQMNSLNPEDTAVYYCNTVVRGAYTYGDVSKYDYWGQGNQVTVSS,low polyreactivity
10,QVQLVESGGGLVQAGGSLRLSCAASGSISDVYAMGWYRQAPGKERELVAAYADSVKGRFTISRDNAKNTVYLQMNCLKPVDTAVYYCNFVETSQELGWQAFDYWGQGTQVTVSS,low polyreactivity
11,QVQLVESGGGLVQAGGSLRLSCAASGSISFSNAMGWYRQAPGKERELVASITSGGSTKYADSVKGRFTISRDNAKNTVYLQMNSLKPEDTAVYYCAADGYDYWGQGTQVTVSS,low polyreactivity
12,QVQLVESGGGLVQAGGSLRLSCAASGSISGGYAMGWYRQAPGKERELVAVIDSGGSTYYADSVKGRFTISRDNAKNTVYLQMNSLKPEDTAVYYCNADYSSQDNFDYWGQGTQVTVSS,low polyreactivity
13,QVQLVESGGGLVQAGGSLRLSCAASGSISGRNTMGWYRQAPGKERELVAAISWSGGSTYYADSVKGRFTISRDNAKNTVYLQMNSLKPEDTAVYYCAARNWRGVGGGVGRYGYWGQGTQVTVSS,high polyreactivity
14,QVQLVESGGGLVQAGGSLRLSCAASGSISGVYAMGWYRQAPGKERELVAAISRSGGSTYYADSVKGRFTISRDNAKNTVYLQMNSLKPEDTAVYYCAAEYTYYSYGGNYDYWGQGTQVSVSS,low polyreactivity
15,QVQLVESGGGLVQAGGSLRLSCAASGSISGYYVKGWYRQAQGKERELVAAITWRGGSTYYADSVKGRFTISRDNAKNTVYLQMNSLKPEDTAVYYCNKVPGRRSTFEYWGQGTQVTVSS,high polyreactivity
16,QVQLVESGGGLVQAGGSLRLSCAASGSISIFYMGWYRQAPGKERELVAAISWSGGRTYYADSVKGRFTISRDNAKNTVYLQMNSLKREDTAVYYCAASRSFPGYGLYYYWGQGTQVTVSS,low polyreactivity
17,QVQLVESGGGLVQAGGSLRLSCAASGSISKINAMGWYRQAPGKESELGAAINTGDSTYYADSVKGRFTISRDNAKNTVYLQMNSLKPEDTAVYYCAAEGSPTGYDDWGQGTQGTVSS,low polyreactivity
18,QVQLVESGGGLVQAGGSLRLSCAASGSISLHYAMGWYRQAPGKERELVAAISKSGGSTYYADSVKGRFTISRDNAKNTVYLQMNSLKPEDTAVYYCAADTYRSFGYNYWGQGTQVTVSS,high polyreactivity
19,QVQLVESGGGLVQAGGSLRLSCAASGSISNRNAMGWYRQAPGKERELVAAITYSGGSTYYADSVKGRFTISRDNAKNTVYLQMNSLKPEDTAVYYCAKDHYRFRYDYWGQGTQVTVSS,low polyreactivity
20,QVQLVESGGGLVQAGGSLRLSCAASGSISNVYDMGWYRQAPGKERELVATISRTGDSTYYADSVKGRFTISRDNAKNTVYLQMNSLKPEDTAVYYCAARFYWWGLGDDYWGQGTQVTVSS,high polyreactivity
21,QVQLVESGGGLVQAGGSLRLSCAASGSISPQNVMGWYRQAPGKERELVAAITGGGYTNYADSVKGRFTISRDNAKKTVYLQMNSLKPEDTAVYYCNADYFQDRLDYWGQGTQVTVSS,low polyreactivity

# Source: the nanobody polyreactivity screen of Harvey et al. (2022)
